Assay results published in PMC6642535.

Target: Flag-tagged wild-type GAPDH (human) (UniProt P04406)
Experiment: native gel or EMSA; lysates of stable PANC-1 lines (GFP/wild-type GAPDH, GFP-PRMT3/wild-type GAPDH, GFP-PRMT3/R248K-GAPDH) on 10% native gel; tetrameric form

Flag-tagged wild-type GAPDH, P04406 1-335 (enzyme; other documents disagree on this pair), sequence (P04406 whole entry): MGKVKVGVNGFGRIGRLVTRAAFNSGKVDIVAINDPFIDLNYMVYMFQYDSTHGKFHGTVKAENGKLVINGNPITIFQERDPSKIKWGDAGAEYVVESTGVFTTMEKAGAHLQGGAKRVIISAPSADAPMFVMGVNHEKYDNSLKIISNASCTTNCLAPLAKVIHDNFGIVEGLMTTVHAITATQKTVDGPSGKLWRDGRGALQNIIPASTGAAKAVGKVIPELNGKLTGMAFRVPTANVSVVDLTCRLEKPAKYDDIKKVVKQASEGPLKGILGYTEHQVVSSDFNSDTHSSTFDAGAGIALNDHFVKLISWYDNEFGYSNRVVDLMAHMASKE

- stoichiometry N: 4
Substance: Flag-tagged wild-type GAPDH, P04406 1-335 (enzyme; other documents disagree on this pair)
